Results on seven molecules are retold here after publication PMC8484813, “Structure and substrate specificity determinants of NfnB, a dinitroaniline herbicide–catabolizing nitroreductase from Sphingopyxis sp. strain HMH” (The Journal of Biological Chemistry, 2021).

Data set [1] has as its target NfnB from Sphingopyxis sp. strain HMH (wildtype) (Sphingopyxis sp. strain HMH). Nature of the data set: SEC; Superdex 200 column, buffer A (50 mM Tris pH 8.0, 100 mM NaCl); elution peak compared with the monomeric molecular weight. (In gel filtration, larger molecules generally elute earlier.)
The target of the next data set is T1, NfnB (Sphingopyxis granuli, UniProt A0A411G9W7).
T1 construct: full-length gene in modified pET28b, N-terminal His6 tag with TEV site, E. coli BL21(DE3); tag kept for activity assays, tag-free for crystals
T1 sequence (A0A411G9W7 1-233): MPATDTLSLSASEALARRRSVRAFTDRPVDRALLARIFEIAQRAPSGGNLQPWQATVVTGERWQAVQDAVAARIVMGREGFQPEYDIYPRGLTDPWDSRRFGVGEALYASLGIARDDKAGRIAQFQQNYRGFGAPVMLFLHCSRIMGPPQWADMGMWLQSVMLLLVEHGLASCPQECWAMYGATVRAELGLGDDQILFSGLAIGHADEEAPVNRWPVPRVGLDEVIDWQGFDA
Nature of the data set: X-ray crystal structure, […] Å. The format is binding. The following applies: tag-free protein; FMN in pocket at dimer interface.

Substrate in data set [2]: CCC(C)Nc1c([N+](=O)[O-])cc(C(C)(C)C)cc1[N+](=O)[O-]
Nature of the data set: purified protein. The format is biochemical, Sphingopyxis granuli. The following applies: 50 mM Tris pH 7.5, 30 °C.

Substrate in data set [3]: CCC(CC)Nc1c([N+](=O)[O-])cc(C)c(C)c1[N+](=O)[O-]
Nature of the data set: purified protein. The format is biochemical, Sphingopyxis granuli. The following applies: 50 mM Tris pH 7.5, 30 °C.

Substrate in data set [4]: CCCN(CCC)c1c([N+](=O)[O-])cc(C(C)C)cc1[N+](=O)[O-]
Nature of the data set: purified protein. The following applies: 50 mM Tris pH 7.5, 30 °C.

Substrate in data set [5]: NC(=O)C1=CN([C@@H]2O[C@H](COP(=O)(O)OP(=O)(O)OC[C@H]3O[C@@H](n4cnc5c(N)ncnc54)[C@H](OP(=O)(O)O)[C@@H]3O)[C@@H](O)[C@H]2O)C=CC1
Nature of the data set: purified protein. The following applies: pH 7.5; 30.0 °C.

Substrate in data set [6]: CCC(C)Nc1c([N+](=O)[O-])cc(C(C)(C)C)cc1[N+](=O)[O-]
In words: purified protein. The following applies: pH 7.5; 30.0 °C.

Substrate in data set [7]: CCC(CC)Nc1c([N+](=O)[O-])cc(C)c(C)c1[N+](=O)[O-]
Nature of the data set: purified protein. The following applies: pH 7.5; 30.0 °C.

Substrate in data set [8]: NC(=O)C1=CN([C@@H]2O[C@H](COP(=O)(O)OP(=O)(O)OC[C@H]3O[C@@H](n4cnc5c(N)ncnc54)[C@H](OP(=O)(O)O)[C@@H]3O)[C@@H](O)[C@H]2O)C=CC1
Nature of the data set: purified protein. The format is biochemical, Sphingopyxis granuli. The following applies: 12.5 μM butralin, 50 mM Tris pH 7.5, 30 °C, electron donor.

Changes are numbered by the printed parent chain. Names and notes keep the numbering of the source.

For orientation: stoichiometry N means the number of molecules, sites or subunits per partner or assembly. In data set [1], “NfnB from Sphingopyxis sp. strain HMH (wildtype) (enzyme)” came in with a stoichiometry N of 2.

On to `Cc1cc2nc3c(=O)[nH]c(=O)nc-3n(C[C@H](O)[C@H](O)[C@H](O)COP(=O)(O)O)c2cc1C` [FMN], for which the “X-ray crystal structure, 2.1 Å” value on NfnB was “We determined the crystal structure of NfnB in the presence of coenzyme FMN”.

B1: NfnB (Sphingopyxis granuli; Y88A) (protein)
chain: T1 sequence (A0A411G9W7 1-233) with Y88A
notes: full-length gene in modified pET28b, N-terminal His6 tag with TEV site, E. coli BL21(DE3); tag kept for activity assays, tag-free for crystals
In general, kcat refers to the maximal rate divided by the concentration of active sites. Regarding B1, the Km is 0.59 (0.077) μM in the data set “purified protein [2]” (200 μM NADPH), 2.9 (0.18) μM in “purified protein [3]” (200 μM NADPH) and 0.83 (0.16) μM in the data set “purified protein [4]” (200 μM NADPH). The figures for the kcat in the data set “purified protein [2]” (200 μM NADPH), in the data set “purified protein [3]” (200 μM NADPH) and in the data set “purified protein [4]” (200 μM NADPH) were 2.1 s⁻¹, 2.5 s⁻¹ and 1.2 s⁻¹, respectively.

B2: NfnB (Sphingopyxis granuli) (protein)
chain: T1 sequence (A0A411G9W7 1-233)
As to B2, the results for the Km in the data set “purified protein [5]”, in the data set “purified protein [6]” and in “purified protein [7]” were 7.3 (1.4) μM, 2.4 (0.50) μM and 6.8 (1.7) μM, respectively.

B3: NfnB (Sphingopyxis granuli; R100M) (protein)
chain: T1 sequence (A0A411G9W7 1-233) with R100M
notes: as for B1
In the case of B3, in the data set “purified protein [8]”, the Km is recorded as 95 (20) μM and the kcat came to 4.9 s⁻¹.

B4: NfnB (Sphingopyxis granuli; R100A) (protein)
chain: T1 sequence (A0A411G9W7 1-233) with R100A
notes: as for B1
For the molecule B4, in the data set “purified protein [8]”, the Km is 58 (4.5) μM and the catalytic constant (kcat) came to 3.9 s⁻¹.

B5: NfnB (Sphingopyxis granuli; Y88F) (protein)
chain: T1 sequence (A0A411G9W7 1-233) with Y88F
notes: as for B1
Consider B5, for which the Km was 0.81 (0.12) μM in the data set “purified protein [2]” (100 μM NADPH), 1.6 (0.28) μM in the data set “purified protein [3]” (100 μM NADPH) and 2.7 (0.17) μM in the data set “purified protein [4]” (100 μM NADPH). Moreover, the kcat in “purified protein [2]” (100 μM NADPH) amounted to 4 s⁻¹; in “purified protein [3]” (100 μM NADPH), 3.6 s⁻¹; in the data set “purified protein [4]” (100 μM NADPH) it was 0.66 s⁻¹.
